Experimental findings from patent US20240218057A1 (ROCKEFELLER UNIVERSITY, published 2024) are described below.

Positions count from the first letter of the chain named.

Assay [1] deals with T1, SARS-CoV-2 receptor-binding domain (WT RBD; S protein residues 319-539) (SARS-CoV-2, UniProt P0DTC2 319-539).
T1 construct: also called SARS-COV-2 RBD
Kind of assay: BLI (Octet Red), IgG on protein A biosensor, WT RBD in solution, 1:1 fit.

The target of assay [2] is T2, SARS-CoV-2 receptor-binding domain (RBD), S protein residues 319-539 (SARS-CoV-2, UniProt P0DTC2 319-539).
T2 construct: also called WT RBD; SARS-COV-2 RBD
The experiment in a line: ELISA on coated RBD.

B1: C916 (antibody, V domains shown)
VH: EVQLVESGGGLVQPGGSLRLSCAASGFTFSNYDMHWVRQATGRGLEWVSTIGTAGDTYYPGSVKGRFTISRENAKNSLYLQMNSLRAGDTALYYCARVRYDSSGYFWSLDYWGQGTLVTVSS
VL: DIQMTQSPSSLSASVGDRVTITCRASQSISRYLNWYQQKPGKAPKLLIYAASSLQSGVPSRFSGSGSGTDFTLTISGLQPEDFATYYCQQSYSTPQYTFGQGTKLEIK
Molecule B1 registered a Kd in assay [1] of 3.45 nM.

B2: C917 (antibody, V domains shown)
VH: B1 VH with R43K, E46D, L92V, Y100F, S102T
VL: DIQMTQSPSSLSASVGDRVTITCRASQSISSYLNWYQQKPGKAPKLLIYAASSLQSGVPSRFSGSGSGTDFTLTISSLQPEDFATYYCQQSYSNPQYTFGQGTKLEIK
In turn, B2 came in with a Kd in assay [1] of 0.101 nM.

B3: C871 (antibody, V domains shown)
VH: EVQLVESGGGLIQTGGSLKLSCAASGFIVTNNYMSWVRQAPGKGLEWVSVIYSGGTTYYADSVKGRFTISRDISKNTLYLQMNSLKAEDTAVYYCAREGDVEGISDSWSGYSRDRYYFDHWGQGTLVTVSS
VL: QSALTQPASVSGSPGQSITISCTGTSSDVGGYNYVSWYQQHPGKAPKLMIYDVSNRPPTISNRFSGSKSGNTASLIISGLQPEDEADYYCSSFTSNNTRVFGTGTKVTVL
Turning to B3, in assay [1], the Kd was found to be 3.7 nM.

B4: C1003 (antibody, V domains shown)
VH: QVQLVESGGGVVQPGRSLRLSCAASGFAFSSYGMNWVRQAPGKGLEWVTTVSSDGNVNYYIDSVKGRFTISRDNSKNTLYLQMNSLRGDDTAVYYCAKGPRFGWSYRGGSGFDIWGQGTMVTVSS
VL: DIQMTQSPSSLSASVGDRVTITCQASQDISNYLNWYQQKPGKAPKLLIYDASNLETGVPSRFSGSGSGTDFTFTITSLQPEDIATYYCQQYDNLPITFGQGTRLEIK
On to B4, for which the Kd in assay [1] was 90.9 nM.

B5: C952 (antibody, V domains shown)
VH: EVQLVQSGAEVKKPGESLTISCKDSGNSFTIYWIGWVRQMPGKGLEWMGMIYPGDSGTRYSPSFEGQVTISADESINTAYLQWRSLKASDTAMYYCVRGIAVDWYFDLWGRGTLVTVSS
VL: QSVLTQPPSVSGAPGQRVTISCTGSSSNIGAGFDVHWYQQLPGTAPKLLIYGNNNRPSGVPDRFSGSKSATSASLAITGLQAEDEADYYCQSSDSSLSGLYVFGTGTNVIV
With B5, binding in assay [1] was put at a Kd of 0.172 nM.

B6: C853 (antibody, V domains shown)
VH: QVQLQESGPGLVKASQTLSLTCTVSGGSFRSGGYYYNWIRQHPGKGLEWIGYIFYTGVTYYNPSLKSRVSISVDTSKNQLSLNLTSVTAADTAVYYCARGSYSDYNGGWDYWGRGTLVTVS
VL: QSALTQPPSASGSPGQSVTISCIGTSSDVGGYNYVSWYQHHPGKAPKLIIYEVSKRPSGVPDRFSGSKSGNTASLTVSGLQADDEADYYCSSYAGSNNWVFGGGTKLTV
For the molecule B6, the affinity in assay [1], expressed as Kd, was 5.88 nM.

B7: C953 (antibody, V domains shown)
VH: QVQLVQSGAEVKKPGSSVKVSCKASGGTFSSYAISWVRQAPGQGLEWMGRIIPILGIANYAQKFQGRVTITADKSTSTAYMELSSLRSEDTAVYYCARDSEYSSSWYSRGYYGMDVWGQGTTVTVSS
VL: not shown
Molecule B7 came in with a Kd in assay [1] of 164 nM.

B8: C908 (antibody, V domains shown)
VH: EVQLVQSGAEVKKPGESLKISCKASGYSFTIYWIGWVRQMPGKGLEWMGIIYPGESETRYSPSFQGQVTISADKSISTAYLQWRSLKASDTAMYYCARGGPPGGVKLELTDYWGQGTLVTVSS
VL: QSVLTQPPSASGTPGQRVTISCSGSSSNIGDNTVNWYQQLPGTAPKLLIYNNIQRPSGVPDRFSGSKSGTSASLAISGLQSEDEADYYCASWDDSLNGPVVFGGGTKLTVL
As for B8, binding in assay [1] was put at a Kd of 0.0026 nM.

B9: C934 (antibody, V domains shown)
VH: QVQLVQSGAEVKKPGASVKVSCKASGYTFTDYYIHWVRQAPGQGLEWMGWINPNSGGTNYAQKFQGRVTMTRDTSISTAYMDLSRLRSDDTAVYYCARDVIITMGRGVVFRMDVWGQGTTVTVSS
VL: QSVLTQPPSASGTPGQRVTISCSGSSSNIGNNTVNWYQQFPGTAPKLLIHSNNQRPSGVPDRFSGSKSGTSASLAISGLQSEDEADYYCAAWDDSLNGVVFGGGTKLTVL
The molecule B9 came in with a Kd in assay [1] of 100 nM.

B10: C888 (antibody, V domains shown)
VH: EVQLVESGGGLVQPGGSLRLSCAASGFTVSSNYMSWVRQAPGKGLEWVSVIYSGGSAYYADSVKGRFTISRDNSKNTLYLQMNSLRAEDTAVYYCARDLRDQDGYSYGAFDYWGQGTLVTVSS
VL: QSALTQPASVSGSPGQSITISCTGTSSDVGGYNYVSWYQQHPGKAPKLMIYDVSNRPSGVSNRFSGSKSGNTASLTISGLQAEDEADYYCSSYTSSSSWVFGGGTKLTVL
For the molecule B10, in assay [1], the Kd was 1390 nM.

B11: C1008 (antibody, V domains shown)
VH: EVQLVESGGGLIQPGGSLRLSCAASGFTVSSNYMSWVRQAPGKGLEWVSVIYSGGSTYYADSVKGRFTISRDNSKNTLYLQMNSLRAEDTAVYYCARVVGYDFWSGYDGGYFDYWGQGTLVTVSS
VL: B10 VL with G31S, Y34L, D52E, N55K, S91C, T94A, S95G, S98T
B11 came in with a Kd in assay [1] of 500 nM.

B12: C1009 (antibody, V domains shown)
VH: EVQLVESGGGLLQPGGSLRLSCAASGFSVSSNYMTWVRQAPGKGLEWVAAIYSGDSTYYVDSVKGRFIISRDNSKNTVYLHLSSLRAEDTAVYYCARLVGYDFRSGSDGGYFDYWGHGTLVTVSS
VL: B10 VL with V29I, G31N, Y34L, N55K, A86T, S91C, T94A, S95G, S98T
Molecule B12 had a Kd in assay [1] of 2.13 nM.

B13: C1027 (antibody, V domains shown)
VH: EVQLVESGGGLVQPGGSLRLSCAASGFIVTTNYMSWVRQAPGKGLEWVSLIYPGGSTFYADSVEGRFTISRDNSKNTLYLQVNSLRVEDTAVYYCARDTFGRGDDHWGQGTLVTVSS
VL: DIQMTQSPSSLSASVGDRVTITCQASQDINIYLNWYQQRPGKAPKLLIYDASNLQTGVPSRFSGSGSGTDFTITISSLQPEDIATYYCQQYDNLPRSFGQGTKLEI
In the case of B13, the Kd in assay [1] was 0.0114 nM.

B14: C936 (antibody, V domains shown)
VH: EVQLVESGGGLIQPGGSLRLSCAASGFTVSSNYMSWVRQAPGKGLEWVSVIYSGGSTFYADSVKGRFTISRDNSKNTLYLQMNSLRAEDTAVYYCARDLGTGLFDYWGQGTLVTVSS
VL: DIQLTQSPSFLSASVGDRVTITCRASQGISSYLAWYQQKPGKAPKLLIYAASTLQSGVPSRFSGSGSGTEFTLTISSLQPEDFATYYCQQLDSYPPGTFGPGTKVDIK
Take B14: in assay [1], the Kd came to 667 nM.

B15: C929 (antibody, V domains shown)
VH: B14 VH with S35T, S56T, F58Y, G100V, T101V, G102W, L103G, F104M, Y106V, L112T
VL: DIQLTQSPSFLSASVGDRVTITCRASQGISSYLAWYQQKPGKAPKLLIYAASTLQSGVPSRFSGSGSGTEFTLTISSLQPEDFATYYCQLLNSYPYTFGQGTKLEIK
Turning to B15, the Kd in assay [1] came to 0.127 nM.

B16: C937 (antibody, V domains shown)
VH: B14 VH with G26E, F27L, S53P
VL: B14 VL with Y87F, Q90L, D92N, Y94N
Turning to B16, binding in assay [1] was characterised by a dissociation constant (Kd) of 3.03 nM.

B17: C930 (antibody, V domains shown)
VH: EVQLVESGGGLFQPGGSLRLACAASGITVSSNYMSWVRQPPGKGLEWVSVIYAGGSTFYADSVKGRLTISRDNSKNTLYLQINSLRAEDTAVYYCARDLVVWGMDVWGQGTTVTVSS
VL: B15 VL with L90Q, S93T
Take B17: the Kd in assay [1] was found to be 0.323 nM.

B18: C954 (antibody, V domains shown)
VH: QVQLVQSGAEVKKPGSSVKVSCKASGDTFTNYAFSWMRQAPGQGLEWMGRIIPILGIVKYSQKFQDRVRISADKSTSTAYMDLSSLRSEDTAMYYCARDSEFSTSWFSRGYHGMDVWGQGTTVTVSS
VL: DIVMTQSPLSLPVTPGEPASISCRSSQSLLHGDGYNYLDWYLQKPGQSPHLLIYLGSNRTSGVSDRFSGSGSGTDFTLKISRVEAEDVGVYYCMQALQTPPTFGGGTKVEIK
B18 came in with a Kd in assay [1] of 7.14 nM.

B19: C881 (antibody, V domains shown)
VH: EVQLVESGGGLIQPGGSLRLSCAVSGVAVSTNYMSWVRQAPGQGLEWVSTIYSGDTTYYSDSVKGRFTISRDNSKNTFYLQMNSLRVPDTAVYYCARLGGVFNGFNGSFDYWGQGTLVTVS
VL: QSALTQPASVSGSPGQSITISCIGTSSDFENYNLVSWYQQHPGKAPKVMIYEDTKRPSGVSNRFSGSKSANTASLTISGLQAEDEAEYYCCSYAGASTWVFGGGTRVTVV
The molecule B19 showed a Kd in assay [1] of 5.26 nM.

B20: C889 (antibody, V domains shown)
VH: EVQLVESGGGLVQPGGSLRLSCAVSGFTVSSNYMTWVRQAPGKGLEWVSLIYSGTSAFYADSVKGRFTISRDNSKNTLYLQMSSLRVNDTAIYYCARDLRKDDGYSYGAFDYWGQGTLVTVSS
VL: QSALTQPASVSGSPGQSITISCSGTSSDVGAHNYVSWYQQYPGKAPKLMIFDVTDRPSGVSNRFSGSKSGNTASLTISGLQAEDEADYYCTSYTTNRSWVFGGGTKVTVL
Take B20: in assay [1], the affinity, expressed as Kd, was 4.17 nM.

B21: C960 (antibody, V domains shown)
VH: QVQLVESGGGVVQPGRSLTLSCTASGFTFNRFAMFWVRQAPGKGLEWVAVISFDGSYEHYAESVKGRFAIFRDNPKNTLYLQMNSLRAEDTAVYYCAKSPINYCANGVCYPDSWGQGTLVTVSS
VL: NFMLTQPHSVSESPGKTVTISCTGSSGSIANNYVQWYQQRPGSAPTTVIFEDTQRPSGVPDRFSGSIDSSSNSASLNISGLKPEDEADYYCQSFDVNSRWVFGGGTKLTVL
In turn, B21 came in with a dissociation constant Kd in assay [1] of 6.67 nM.

B22: C843 (antibody, V domains shown)
VH: QVQLVESGGGVVQPGRSLRLSCAASGFTFSRYAMHWVRQAPGKGLEWVAVISYDGSNKYYATSLKGRCTISRDNSKNTLYLQMNSLRAEDTAVYFCAKQIGEYCSGGNCYQGSLDYWGQGTLVTVSS
VL: DIQMTQSPSSLSASVGDRVTITCQASQDISNYLNWYQQKPGKAPKLLIYDASDLETGVPSTFSGSGSGTDFTLTISSLQPEDFATYYCQQYDIVPFTFGPGTKVDIK
B22 had an EC50 in assay [2] of 1.34 ng/mL.

B23: C1002 (antibody, V domains shown)
VH: EVQLVESGGGLVQPGGSLRLSCAASEFIVSSNYMTWVRQAPGKGLEWVSIMYPGGSTFYADSVKGRFTISRDNSKNTLYLQINRLRAEDTAVYYCARDIAGRLDYWGQGTLVTVSS
VL: DIQMTQSPSSLSASVGDRVTITCQASQDINNYLNWYQQKPGKAPKLLIYDASNLETGVPSRFSGSGSGTDFSFTISSLQPEDIATYYCQQYDNLSRLTFGGGTKVEIK
As to B23, the Kd in assay [1] was determined as 0.00196 nM.

B24: C951 (antibody, V domains shown)
VH: QVQLQESGPRLVKPSGTLSLTCAVSGGSISTTNWWSWVRQPPGKGLEWIGEIHHSGNTNYNPSLKSRVTISVDRSKNQFSLKLSSVTAADTAVYFCARDGGRPGDPFDIWGQGTMVTVSS
VL: QSALTQPASVSGSPGQSITISCTGTSSDVGGYNYVSWYQQHPGKAPNLMIYDVSDRPSGVSNRFSGSKSGNTASLTISGLQAEDEADYYCNSFTSNSTRVFGTGTKVTV
In the case of B24, the Kd in assay [1] was 3.03 nM.
